Reference: the Human Domainome abundance scans (Beltran et al. 2025)
± gives the uncertainty stated by the source.

B1: GAS2-like protein 1, residues 209 to 276; numbered along this chain, Q99501 (parent)
chain: DELVREILGRCTCPDQFPMIKVSEGKYRVGDSSLLIFVRVLRSHVMVRVGGGWDTLEHYLDKHDPCRC

Variants of: B1
Test: abundance fitness (aPCA) (normalised: wild type 0, dead -1); higher = more abundant; growth selection in yeast, the domain comes from the species named
Conditions: Homo sapiens

Abundance fitness of substitutions, site by site:
E24: A -0.099 ± 0.085; R -0.417 ± 0.075; T -0.579 ± 0.47; Q 0.041 ± 0.15; D 0.062 ± 0.12; V -0.505 ± 0.12; P -0.246 ± 0.12; H -0.193 ± 0.22; L -0.715 ± 0.19; C -0.588 ± 0.25; S -0.254 ± 0.084; W -0.422 ± 0.14
C13: K -1.13 ± 0.26; Y -0.744 ± 0.14; S -0.728 ± 0.071; T -0.817 ± 0.15; M -0.786 ± 0.15; I -0.304 ± 0.1; V -0.306 ± 0.074; W -0.922 ± 0.12; G -0.682 ± 0.078; E -0.726 ± 0.2; R -0.851 ± 0.087; P -0.972 ± 0.24; Q -0.869 ± 0.15; L -0.719 ± 0.072; F -0.894 ± 0.13; A -0.974 ± 0.19; H -0.874 ± 0.28; D -0.752 ± 0.12
I20: P -0.917 ± 0.25; R -0.009 ± 0.046; S -0.207 ± 0.064; V -0.021 ± 0.052; Y 0.054 ± 0.054; A -0.216 ± 0.08; E -0.016 ± 0.087; N -0.111 ± 0.16; C -0.366 ± 0.1; Q 0.026 ± 0.1; K -0.037 ± 0.2; H 0.167 ± 0.12; L -0.151 ± 0.06; G -0.498 ± 0.073; W 0.008 ± 0.06; F -0.096 ± 0.069
G25: D -0.07 ± 0.082; S -0.158 ± 0.041; W -0.58 ± 0.048; R -0.328 ± 0.048; V -0.961 ± 0.18; N -0.116 ± 0.11; C -0.236 ± 0.098; I -1.07 ± 0.18; P -0.809 ± 0.19; K -0.739 ± 0.25; Y -0.388 ± 0.11; Q -0.13 ± 0.08; E -0.345 ± 0.079; L -0.914 ± 0.091; F -0.366 ± 0.098
P14: A -0.142 ± 0.063; C -0.439 ± 0.11; S -0.162 ± 0.049; T -0.136 ± 0.053; N -0.424 ± 0.12; W -0.816 ± 0.12; M -0.457 ± 0.076; R -0.147 ± 0.045; Q -0.161 ± 0.074; K 0.016 ± 0.056; F -0.509 ± 0.17; V -0.213 ± 0.05; G -0.502 ± 0.079; I -0.336 ± 0.073
K26: C 0.204 ± 0.18; A -0.063 ± 0.16; E -0.418 ± 0.17; S -0.075 ± 0.092; G -0.589 ± 0.2; V 0.177 ± 0.065; H -0.035 ± 0.15; T 0.149 ± 0.067; M -0.213 ± 0.17; R 0 ± 0.094; L -0.145 ± 0.11; F -0.013 ± 0.14; Q 0.237 ± 0.12; N -0.317 ± 0.092; W 0.132 ± 0.077
R10: S -0.318 ± 0.05; C -0.72 ± 0.11; V -0.747 ± 0.099; T -0.111 ± 0.053; Y -0.564 ± 0.13; G -0.432 ± 0.077; A -0.311 ± 0.052; N -0.234 ± 0.062; E -0.386 ± 0.1; Q -0.088 ± 0.071; K -0.135 ± 0.063; F -0.448 ± 0.067; W -0.728 ± 0.11; P -0.863 ± 0.16; I -0.766 ± 0.14; H -0.013 ± 0.051
P18: N -0.15 ± 0.079; S -0.043 ± 0.045; H -0.222 ± 0.09; E -0.132 ± 0.066; G -0.475 ± 0.058; K 0.026 ± 0.063; R -0.012 ± 0.033; M -0.501 ± 0.085; I -0.524 ± 0.1; D -0.207 ± 0.064; F -0.645 ± 0.16; C -0.512 ± 0.082; L -0.471 ± 0.054; Y -0.669 ± 0.14; W -0.809 ± 0.12; Q 0.011 ± 0.072
G9: W -0.71 ± 0.073; V -0.587 ± 0.044
R28: N -0.857 ± 0.18; I -0.208 ± 0.068; K -0.07 ± 0.044; H -0.549 ± 0.13; F -0.668 ± 0.14; L -0.05 ± 0.04; G -0.944 ± 0.14; V -0.15 ± 0.048; M 0.041 ± 0.061; W -0.403 ± 0.079; A -0.235 ± 0.053; Q -0.265 ± 0.12; P -0.964 ± 0.18; Y -0.341 ± 0.068; C -0.159 ± 0.091; E -0.516 ± 0.063; T -0.467 ± 0.1
D15: L -0.058 ± 0.034; M 0.046 ± 0.05; P -0.964 ± 0.21; V 0.054 ± 0.04; G -0.379 ± 0.1; H 0.017 ± 0.082; Q -0.002 ± 0.081; C -0.188 ± 0.045; A 0.04 ± 0.044; K 0.034 ± 0.053; S 0.026 ± 0.039; E 0.101 ± 0.052; R 0.018 ± 0.038; Y -0.151 ± 0.052; W -0.32 ± 0.069; I 0.014 ± 0.058; N 0.087 ± 0.077; F -0.259 ± 0.06; T 0.125 ± 0.059
Y27: L -0.849 ± 0.11; S -0.861 ± 0.12; R -0.85 ± 0.14; F -0.579 ± 0.11; T -0.855 ± 0.17; C -0.874 ± 0.26; V -0.996 ± 0.15; G -0.891 ± 0.12; P -0.866 ± 0.17; W 0.079 ± 0.087; M -0.597 ± 0.28; I -0.287 ± 0.42
K21: W -0.397 ± 0.08; H -0.426 ± 0.085; V -0.791 ± 0.087; N -0.828 ± 0.24; C -0.543 ± 0.21; L -0.541 ± 0.062; G -0.689 ± 0.077; P -0.646 ± 0.1; I -0.981 ± 0.27; T -0.739 ± 0.11; Q -0.254 ± 0.076; R 0.01 ± 0.036; M -0.297 ± 0.087; A -0.748 ± 0.14; S -0.747 ± 0.088; Y -0.525 ± 0.12; E -0.396 ± 0.1; D -0.804 ± 0.2
G30: L -0.605 ± 0.068; R -0.302 ± 0.049; H -0.653 ± 0.13; F -0.927 ± 0.19; C -0.532 ± 0.2; E -0.862 ± 0.12; I -0.803 ± 0.21; A -0.35 ± 0.054; V -0.646 ± 0.08; D -0.337 ± 0.084; Q -0.603 ± 0.12; N -0.526 ± 0.15; M -0.432 ± 0.069; W -0.952 ± 0.19; P -0.506 ± 0.088; K -0.371 ± 0.085; S -0.53 ± 0.058; T -0.569 ± 0.072
V22: R -0.428 ± 0.073; D -0.327 ± 0.28; L -0.323 ± 0.055; M -0.251 ± 0.071; G -0.916 ± 0.39; T -0.662 ± 0.17; I -0.035 ± 0.081; H -0.26 ± 0.12; C -0.365 ± 0.099; P -0.971 ± 0.29; A -0.311 ± 0.34; Y -0.795 ± 0.14; F -0.518 ± 0.13; S -0.848 ± 0.098
M19: D -1.18 ± 0.33; K -0.527 ± 0.27; R -0.516 ± 0.081; I -0.345 ± 0.083; T -0.96 ± 0.17; L -0.011 ± 0.044; W -0.121 ± 0.079; S -0.895 ± 0.13; F 0.171 ± 0.071; H -0.429 ± 0.13; P -1.05 ± 0.26; A -0.539 ± 0.061; E -1.02 ± 0.36; C -0.664 ± 0.24; Q -0.961 ± 0.25; G -0.845 ± 0.17; N -0.74 ± 0.3
C11: D -0.84 ± 0.29; A -0.618 ± 0.084; E -1 ± 0.2; W -1 ± 0.15; F -0.848 ± 0.2; V -0.752 ± 0.087; S -0.961 ± 0.13; M -0.771 ± 0.15; L -0.895 ± 0.083; T -0.882 ± 0.12; Y -0.892 ± 0.12; P -1.17 ± 0.35; H -0.966 ± 0.26; R -0.932 ± 0.086; Q -0.986 ± 0.26; I -1.08 ± 0.33; K -0.949 ± 0.13
T12: M -0.419 ± 0.098; I -0.313 ± 0.069; Q -0.193 ± 0.077; S -0.181 ± 0.043; Y -0.8 ± 0.19; E -0.381 ± 0.063; P -0.749 ± 0.14; C -0.247 ± 0.047; H -0.542 ± 0.13; N -0.355 ± 0.11; K -0.169 ± 0.1; L -0.664 ± 0.058; V -0.267 ± 0.041; D -0.797 ± 0.15; W -0.831 ± 0.2
V29: I 0.129 ± 0.047; M -0.187 ± 0.05; S -0.422 ± 0.09; C -0.213 ± 0.077; R -0.305 ± 0.073; Y -0.489 ± 0.18; A -0.34 ± 0.07; N -0.793 ± 0.33; Q -0.501 ± 0.081; P -0.985 ± 0.15; G -0.807 ± 0.097; H -0.188 ± 0.16; F -0.163 ± 0.061; W -0.551 ± 0.089; T -0.531 ± 0.07; E -0.978 ± 0.26; K -0.855 ± 0.19
S23: H -0.325 ± 0.058; T -0.036 ± 0.057; R -0.359 ± 0.062; E 0.099 ± 0.062; W -0.53 ± 0.11; P -0.914 ± 0.12; F -0.83 ± 0.24; M -0.47 ± 0.064; A -0.023 ± 0.048; N -0.483 ± 0.15; K -0.336 ± 0.079; Q -0.141 ± 0.089; C -0.031 ± 0.088; G 0.013 ± 0.045; V -0.674 ± 0.073; I -0.861 ± 0.2; D 0.028 ± 0.05; L -0.809 ± 0.079
F17: T -0.858 ± 0.11; M -0.777 ± 0.16; C -1 ± 0.23; S -0.925 ± 0.12; A -0.955 ± 0.15; Y 0.098 ± 0.088; Q -0.88 ± 0.18; L -0.667 ± 0.049; W -0.741 ± 0.096; K -0.831 ± 0.13; G -0.743 ± 0.08; R -0.865 ± 0.1; V -0.768 ± 0.082; I -0.846 ± 0.19
Q16: S -0.172 ± 0.041; E -0.42 ± 0.12; V -0.269 ± 0.043; N -0.634 ± 0.12; G -0.131 ± 0.046; M -0.276 ± 0.048; P 0.131 ± 0.047; K 0.113 ± 0.047; Y -0.848 ± 0.11; T -0.11 ± 0.044; F -0.623 ± 0.16; I -0.351 ± 0.077; H -0.486 ± 0.095; A -0.224 ± 0.053
